# Results from the supplement of paper PMC9112550, “Optimization of the antimicrobial peptide Bac7 by deep mutational scanning” (BMC Biology, 2022).
# System: Escherichia coli TOP10
# Assay: shrunken log2 fold change of peptide-encoding DNA abundance (4.5 h post-induction vs induction); higher = less antimicrobial activity (less host growth inhibition)
# Settings: time post-induction: 4.5 h; library: site-saturation at positions 5, 18, 19, 20
# 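Note: peptides expressed intracellularly from a pBAD plasmid library in pooled LB shake-flask culture, induced with 0.3% L-arabinose, DNA abundance read by NGS, three biological replicates, DESeq2 with apeglm shrinkage.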
row,Sequence,shrunken log2 fold change
1,RRIRRRPPRLPRPRPRPYGVPRP,0.037
2,RRIRWRPPRLPRPRPRPMIMPRP,-0.0612
3,RRIRPRPPRLPRPRPRPEPQPRP,0.268
4,RRIRIRPPRLPRPRPRPYTMPRP,-0.758
5,RRIRNRPPRLPRPRPRPQVMPRP,0.06
6,RRIRFRPPRLPRPRPRPYRIPRP,-0.34
7,RRIRSRPPRLPRPRPRPPNPPRP,0.273
8,RRIRKRPPRLPRPRPRPADSPRP,0.00593
9,RRIRSRPPRLPRPRPRPWQIPRP,0.0843
10,RRIRVRPPRLPRPRPRPFLAPRP,-0.219
11,RRIRSRPPRLPRPRPRPFTDPRP,-0.04
12,RRIRARPPRLPRPRPRPHSEPRP,-0.0859
13,RRIRKRPPRLPRPRPRPWKKPRP,0.0118
14,RRIRKRPPRLPRPRPRPCFKPRP,0.0163
15,RRIRRRPPRLPRPRPRPDMHPRP,-0.203
16,RRIRFRPPRLPRPRPRPDVRPRP,0.0165
17,RRIRNRPPRLPRPRPRPYKAPRP,-0.388
18,RRIRSRPPRLPRPRPRPFSIPRP,-0.379
19,RRIRIRPPRLPRPRPRPVYPPRP,-0.233
20,RRIRVRPPRLPRPRPRPVFWPRP,0.378

row,Sequence,shrunken log2 fold change
1,RRIRQRPPRLPRPRPRPFDLPRP,-0.318
2,RRIRERPPRLPRPRPRPHLHPRP,-0.485
3,RRIRCRPPRLPRPRPRPNGNPRP,-0.288
4,RRIRNRPPRLPRPRPRPIDDPRP,0.00709
5,RRIRHRPPRLPRPRPRPFFFPRP,0.123
6,RRIRPRPPRLPRPRPRPIHFPRP,-0.241
7,RRIRHRPPRLPRPRPRPGTRPRP,-0.13
8,RRIRYRPPRLPRPRPRPRFAPRP,-0.152
9,RRIRGRPPRLPRPRPRPFECPRP,0.0132
10,RRIRIRPPRLPRPRPRPKSFPRP,0.0398
11,RRIRDRPPRLPRPRPRPHGIPRP,-0.265
12,RRIRVRPPRLPRPRPRPKPYPRP,0.0131
13,RRIRMRPPRLPRPRPRPNCMPRP,0.183
14,RRIRYRPPRLPRPRPRPRMVPRP,-0.475
15,RRIRNRPPRLPRPRPRPTRKPRP,0.623
16,RRIRRRPPRLPRPRPRPSSRPRP,-0.00108
17,RRIRTRPPRLPRPRPRPNCAPRP,-0.254
18,RRIRWRPPRLPRPRPRPFFCPRP,0.104
19,RRIRTRPPRLPRPRPRPTMFPRP,-0.148
20,RRIRMRPPRLPRPRPRPSDAPRP,0.617

row,Sequence,shrunken log2 fold change
1,RRIRRRPPRLPRPRPRPTCFPRP,0.469
2,RRIRNRPPRLPRPRPRPWHKPRP,-0.0524
3,RRIRTRPPRLPRPRPRPSVEPRP,0.0926
4,RRIRFRPPRLPRPRPRPDHCPRP,-0.0831
5,RRIRFRPPRLPRPRPRPEPPPRP,0.702
6,RRIRIRPPRLPRPRPRPKSSPRP,-0.143
7,RRIRFRPPRLPRPRPRPKGIPRP,-0.0392
8,RRIRMRPPRLPRPRPRPPAEPRP,3.68
9,RRIRLRPPRLPRPRPRPPVSPRP,0.11
10,RRIRGRPPRLPRPRPRPCCAPRP,1.55
11,RRIRPRPPRLPRPRPRPNWRPRP,0.392
12,RRIRNRPPRLPRPRPRPKHLPRP,-0.403
13,RRIRERPPRLPRPRPRPGNNPRP,-0.426
14,RRIRKRPPRLPRPRPRPMQAPRP,1.15
15,RRIRARPPRLPRPRPRPRDVPRP,0.261
16,RRIRDRPPRLPRPRPRPVWGPRP,0.67
17,RRIRARPPRLPRPRPRPPKCPRP,0.274
18,RRIRRRPPRLPRPRPRPRDNPRP,0.15
19,RRIRNRPPRLPRPRPRPKRNPRP,-0.189
20,RRIRSRPPRLPRPRPRPYLKPRP,-0.0359
